Data taken from patent publication US20230056470A1, “USES OF ANTI-TGF-BETA ANTIBODIES AND CHECKPOINT INHIBITORS FOR THE TREATMENT OF PROLIFERATIVE DISEASES” (NOVARTIS AG, priority 2019, published 2023).

How the values were obtained:
[1] = Population PK analysis and model-based simulations of NIS793 (dose escalation phase of CNIS793X2101); parameters: species or system human
Procedure: This is consistent with the observation that NIS793 PK appears dose proportional and time-independent based on the non-compartmental analyses.
Further a dose of 1400 mg would also match exposure observed at 20 mg/kg.

[2] = Clinical PK of NIS793, study CNIS793X2101 (single agent and combination with PDR001; escalation and expansion; cycles 1 and 3); assay type: in vivo, human
[3] = Clinical PK of PDR001 in combination with NIS793, study CNIS793X2101; assay type: in vivo, human; details: 100 or 300 mg Q3W and 400 mg Q4W
[4] = Mean, cycle 1, NIS793 0.3 mg/kg Q3W + PDR 100 mg Q3W, escalation
[5] = Mean, cycle 1, NIS793 0.3 mg/kg Q3W + PDR 300 mg Q3W, escalation
[6] = Mean, cycle 1, NIS793 0.3 mg/kg Q3W Liquid, single agent, escalation
[7] = Mean, cycle 1, NIS793 1 mg/kg Q3W + PDR 300 mg Q3W, escalation
[8] = Mean, cycle 1, NIS793 1 mg/kg Q3W Liquid, single agent, escalation
[9] = Mean, cycle 1, NIS793 1 mg/kg Q3W Lyophilisate, single agent, escalation
[10] = Mean, cycle 1, NIS793 3 mg/kg Q3W + PDR 300 mg Q3W, escalation
[11] = Mean, cycle 1, NIS793 10 mg/kg Q3W + PDR 300 mg Q3W, escalation
[12] = Mean, cycle 1, NIS793 20 mg/kg Q2W + PDR 400 mg Q4W, escalation
[13] = Mean, cycle 1, NIS793 30 mg/kg Q2W + PDR 400 mg Q4W, escalation
[14] = Mean, cycle 1, NIS793 30 mg/kg Q3W + PDR 300 mg Q3W, escalation
[15] = cycle 1, NIS793 2100 mg Q3W + PDR 300 mg Q3W, MSS-CRC, expansion, mean
[16] = cycle 1, NIS793 2100 mg Q3W + PDR 300 mg Q3W, NSCLC, expansion, mean
[17] = cycle 3, NIS793 0.3 mg/kg Q3W + PDR 100 mg Q3W, escalation, mean
[18] = cycle 3, NIS793 0.3 mg/kg Q3W + PDR 300 mg Q3W, escalation, mean
[19] = cycle 3, NIS793 0.3 mg/kg Q3W Liquid, single agent, escalation, mean
[20] = cycle 3, NIS793 1 mg/kg Q3W + PDR 300 mg Q3W, escalation, mean
[21] = cycle 3, NIS793 1 mg/kg Q3W Liquid, single agent, escalation, mean
[22] = cycle 3, NIS793 1 mg/kg Q3W Lyophilisate, single agent, escalation, mean
[23] = cycle 3, NIS793 3 mg/kg Q3W + PDR 300 mg Q3W, escalation, mean
[24] = cycle 3, NIS793 10 mg/kg Q3W + PDR 300 mg Q3W, escalation, mean
[25] = cycle 3, NIS793 20 mg/kg Q2W + PDR 400 mg Q4W, escalation, mean
[26] = cycle 3, NIS793 30 mg/kg Q3W + PDR 300 mg Q3W, escalation, mean
[27] = cycle 3, NIS793 2100 mg Q3W + PDR 300 mg Q3W, MSS-CRC, expansion, mean (SD)

**Q.** With “NIS793: fully human IgG2, human/mouse cross-reactive, TGF-β-neutralizing antibody; heavy and light chain SEQ ID NOs: 9 and 10” as the substance, how does the “Population PK model that describes NIS793 pharmacokinetics” value ([1]; dose escalation concentration data) read?
**A.** The value was “two compartment model with first order elimination from the central compartment”.

**Q.** And the “Estimated exponent of body weight as covariate on clearance (power model)” value ([1]; population PK model, CV %=40%)?
**A.** Its value is 0.55.

**Q.** And the “Increase in NIS793 exposure (Cycle 1 Cmax and AUClast) with dose” value ([2]; 30 minute intravenous infusion, 0.3 mg/kg to 30 mg/kg)?
**A.** Its value is “approximately dose-proportional increase”.

**Q.** What about the AUClast [2, 4] of the same substance?
**A.** The AUClast was 1360000 ng·h/mL.

**Q.** What about the Clast [2, 4] of the same substance?
**A.** Its Clast is 1400 ng/mL.

**Q.** And the Cmax [2, 4]?
**A.** The Cmax was 6440 ng/mL.

**Q.** What about the AUClast [2, 5] of the same substance?
**A.** Its AUClast is 1700000 ng·h/mL.

**Q.** And the Clast [2, 5]?
**A.** The Clast was 1530 ng/mL.

**Q.** And the Cmax [2, 5]?
**A.** Its Cmax is 11200 ng/mL.

**Q.** What about the AUClast [2, 6] of the same substance?
**A.** The AUClast was 1140000 ng·h/mL.

**Q.** And the Clast [2, 6]?
**A.** Its Clast is 1060 ng/mL.

**Q.** What about the Cmax [2, 6] of the same substance?
**A.** The Cmax was 7180 ng/mL.

**Q.** And the AUClast [2, 7]?
**A.** Its AUClast is 5850000 ng·h/mL.

**Q.** What about the Clast [2, 7] of the same substance?
**A.** Its Clast is 8790 ng/mL.

**Q.** What about the Cmax [2, 7] of the same substance?
**A.** The Cmax was 30800 ng/mL.

**Q.** What about the AUClast [2, 8] of the same substance?
**A.** The AUClast was 4170000 ng·h/mL.

**Q.** What about the Clast [2, 8] of the same substance?
**A.** The Clast was 4320 ng/mL.

**Q.** What about the Cmax [2, 8] of the same substance?
**A.** The Cmax was 24900 ng/mL.

**Q.** And the AUClast [2, 9]?
**A.** The AUClast was 4770000 ng·h/mL.

**Q.** What about the Clast [2, 9] of the same substance?
**A.** The Clast was 4780 ng/mL.

**Q.** What about the Cmax [2, 9] of the same substance?
**A.** The Cmax was 27600.0 ng/mL.

**Q.** What about the AUClast [2, 10] of the same substance?
**A.** The AUClast was 11400000 ng·h/mL.

**Q.** And the Clast [2, 10]?
**A.** The Clast was 14300 ng/mL.

**Q.** And the Cmax [2, 10]?
**A.** The Cmax was 58400 ng/mL.

**Q.** What about the AUClast [2, 11] of the same substance?
**A.** The AUClast was 3750000 ng·h/mL.

**Q.** What about the Clast [2, 11] of the same substance?
**A.** The Clast was 44800 ng/mL.

**Q.** What about the Cmax [2, 11] of the same substance?
**A.** Its Cmax is 181000 ng/mL.

**Q.** And the AUClast [2, 12]?
**A.** The AUClast was 54500000 ng·h/mL.

**Q.** What about the Clast [2, 12] of the same substance?
**A.** Its Clast is 107000 ng/mL.

**Q.** What about the Cmax [2, 12] of the same substance?
**A.** The Cmax was 333000 ng/mL.

**Q.** And the AUClast [2, 13]?
**A.** Its AUClast is 69100000 ng·h/mL.

**Q.** And the Clast [2, 13]?
**A.** Its Clast is 154000 ng/mL.

**Q.** What about the Cmax [2, 13] of the same substance?
**A.** Its Cmax is 439000 ng/mL.

**Q.** And the AUClast [2, 14]?
**A.** The AUClast was 90900000 ng·h/mL.

**Q.** What about the Clast [2, 14] of the same substance?
**A.** The Clast was 133000 ng/mL.

**Q.** What about the Cmax [2, 14] of the same substance?
**A.** Its Cmax is 519000 ng/mL.

**Q.** What about the AUClast [2, 15] of the same substance?
**A.** The AUClast was 94700000 ng·h/mL.

**Q.** What about the Clast [2, 15] of the same substance?
**A.** The Clast was 206000 ng/mL.

**Q.** And the Cmax [2, 15]?
**A.** Its Cmax is 547000 ng/mL.

**Q.** What about the AUClast [2, 16] of the same substance?
**A.** The AUClast was 140000000 ng·h/mL.

**Q.** What about the Clast [2, 16] of the same substance?
**A.** Its Clast is 180000 ng/mL.

**Q.** What about the Cmax [2, 16] of the same substance?
**A.** Its Cmax is 743000 ng/mL.

**Q.** What about the AUClast [2, 17] of the same substance?
**A.** Its AUClast is 2530000 ng·h/mL.

**Q.** And the Clast [2, 17]?
**A.** Its Clast is 2960 ng/mL.

**Q.** And the Cmax [2, 17]?
**A.** The Cmax was 8990 ng/mL.

**Q.** And the AUClast [2, 18]?
**A.** The AUClast was 2960000 ng·h/mL.

**Q.** And the Clast [2, 18]?
**A.** Its Clast is 3330 ng/mL.

**Q.** What about the Cmax [2, 18] of the same substance?
**A.** The Cmax was 11600 ng/mL.

**Q.** And the AUClast [2, 19]?
**A.** Its AUClast is 1820000 ng·h/mL.

**Q.** And the Clast [2, 19]?
**A.** Its Clast is 1900 ng/mL.

**Q.** And the Cmax [2, 19]?
**A.** Its Cmax is 8750 ng/mL.

**Q.** What about the AUClast [2, 20] of the same substance?
**A.** The AUClast was 5630000 ng·h/mL.

**Q.** And the Clast [2, 20]?
**A.** The Clast was 9710 ng/mL.

**Q.** What about the Cmax [2, 20] of the same substance?
**A.** The Cmax was 31300 ng/mL.

**Q.** And the AUClast [2, 21]?
**A.** Its AUClast is 2910000 ng·h/mL.

**Q.** What about the Clast [2, 21] of the same substance?
**A.** The Clast was 4290 ng/mL.

**Q.** And the Cmax [2, 21]?
**A.** Its Cmax is 9830 ng/mL.

**Q.** And the AUClast [2, 22]?
**A.** The AUClast was 4090000 ng·h/mL.

**Q.** What about the Clast [2, 22] of the same substance?
**A.** The Clast was 6350 ng/mL.

**Q.** What about the Cmax [2, 22] of the same substance?
**A.** Its Cmax is 13800 ng/mL.

**Q.** And the AUClast [2, 23]?
**A.** The AUClast was 13900000 ng·h/mL.

**Q.** And the Clast [2, 23]?
**A.** Its Clast is 16100 ng/mL.

**Q.** What about the Cmax [2, 23] of the same substance?
**A.** Its Cmax is 55200 ng/mL.

**Q.** What about the AUClast [2, 24] of the same substance?
**A.** The AUClast was 69200000 ng·h/mL.

**Q.** What about the Clast [2, 24] of the same substance?
**A.** Its Clast is 95900 ng/mL.

**Q.** What about the Cmax [2, 24] of the same substance?
**A.** The Cmax was 220000 ng/mL.

**Q.** What about the AUClast [2, 25] of the same substance?
**A.** The AUClast was 149000000 ng·h/mL.

**Q.** What about the Clast [2, 25] of the same substance?
**A.** The Clast was 154000 ng/mL.

**Q.** And the Cmax [2, 25]?
**A.** Its Cmax is 524000 ng/mL.

**Q.** And the AUClast [2, 26]?
**A.** Its AUClast is 242000000 ng·h/mL.

**Q.** And the Clast [2, 26]?
**A.** Its Clast is 228000 ng/mL.

**Q.** And the Cmax [2, 26]?
**A.** Its Cmax is 713000 ng/mL.

**Q.** And the AUClast [2, 27]?
**A.** The AUClast was 95500000 (88500000) h*ng/mL.

**Q.** What about the Clast [2, 27] of the same substance?
**A.** Its Clast is 341000 (313000) ng/mL.

**Q.** What about the Cmax [2, 27] of the same substance?
**A.** Its Cmax is 590000 (319000) ng/mL.

**Q.** And the “Between subject variability (CV %) for Cmax” value ([2]; patients, across dose cohorts)?
**A.** Its value is 12.1 to 73.3%.

**Q.** Which “PK of PDR001 in combination with NIS793 versus single agent data” value [3] does the source give for “PDR001: anti-PD-1 inhibitor spartalizumab, also known as PDR001 (Novartis)” here?
**A.** The value was “appears to be similar to the single agent data”.
